According to article doi:10.1101/2021.08.24.457465:
Where two headings read alike, the source gives them in different places.

T1: ToPif1 (wild type) (Thermus oshimai, UniProt K7RJ88 64-507)
T1 sequence: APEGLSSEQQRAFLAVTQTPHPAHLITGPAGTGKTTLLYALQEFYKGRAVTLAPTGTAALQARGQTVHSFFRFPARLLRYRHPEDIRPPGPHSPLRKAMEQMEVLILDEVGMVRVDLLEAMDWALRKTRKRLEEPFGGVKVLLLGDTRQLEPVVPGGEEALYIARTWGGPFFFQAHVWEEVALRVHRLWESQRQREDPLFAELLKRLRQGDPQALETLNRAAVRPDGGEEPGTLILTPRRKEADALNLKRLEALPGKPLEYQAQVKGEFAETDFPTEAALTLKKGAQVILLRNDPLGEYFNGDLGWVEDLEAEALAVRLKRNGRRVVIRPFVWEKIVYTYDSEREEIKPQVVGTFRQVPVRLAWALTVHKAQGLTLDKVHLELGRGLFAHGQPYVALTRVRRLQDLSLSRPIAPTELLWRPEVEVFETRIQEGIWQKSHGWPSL

T2: ToPif1 (wild type), crystal (Thermus oshimai, UniProt K7RJ88 64-507)
T2 sequence: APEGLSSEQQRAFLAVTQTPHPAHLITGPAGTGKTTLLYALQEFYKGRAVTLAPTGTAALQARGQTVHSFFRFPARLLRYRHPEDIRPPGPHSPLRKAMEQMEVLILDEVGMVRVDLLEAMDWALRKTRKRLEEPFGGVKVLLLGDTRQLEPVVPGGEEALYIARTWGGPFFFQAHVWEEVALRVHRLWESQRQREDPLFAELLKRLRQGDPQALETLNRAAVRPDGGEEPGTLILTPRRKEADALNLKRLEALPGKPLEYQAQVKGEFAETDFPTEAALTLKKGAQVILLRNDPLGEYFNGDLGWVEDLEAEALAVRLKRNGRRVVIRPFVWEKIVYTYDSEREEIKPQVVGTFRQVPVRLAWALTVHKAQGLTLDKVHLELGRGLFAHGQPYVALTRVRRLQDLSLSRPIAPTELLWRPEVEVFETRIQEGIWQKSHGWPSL


Key:
[1] = target: T1, ToPif1 (wild type); assay: fluorescence anisotropy
[2] = target: T2, ToPif1 (wild type), crystal; assay: X-ray crystallography
[3] = target: T1, ToPif1 (wild type); assay: fluorescence anisotropy; remark: listed apart in the source
[4] = target: T1, ToPif1 (wild type); assay: fluorescence anisotropy; remark: listed apart in the source
[5] = target: T1, ToPif1 (wild type); assay: fluorescence anisotropy; remark: listed apart in the source

Binder | Kd [1] [nM] | binding result [2] | Kd [3] [nM] | Kd [4] [nM] | Kd [5] [nM]
GGGTTAGGGTTAGGGTTAGGG (structured_DNA) [G4Tel] | ~29.6 | – | – | – | –
TTTTTTGGGTGGGTGGGTGGGTTTTTTTT (structured_DNA) [G4T6/T8] | – | binds | – | – | –
AGGGTGGGTGGGTGGG (structured_DNA) [G4CEB] | ~23.3 | – | 30.9 ± 2.32 | 30.3 ± 1.17 | –
TTTTTTTTTTTT (ssDNA) [T12] | ~29.1 | – | – | 29.1 ± 0.53 | 26.5 ± 0.71
